Assay results: US10023615B2, “Efficient transport into white blood cells” (priority 2008, dated 2018)
Ends that are not written are not given here.

Tested on: leucocytes (cd11b positive cells) in inflamed hind paw
Experiment: Immunohistochemistry and CD11b staining on paw from CFA-induced inflammation (4 h)
Type: in vivo, C57/Bl6 mice
Details: 10 μg/kg i.v. one hour prior to CFA; 4 h after CFA
Method: FIG. 19A, FIG. 19B, and FIG. 19C: Immunohistochemistry staining on paw from CFA-induced inflammation (4 h). Upper panels represent the Hematoxylin and Eosin (H&E) staining of hindpays. From left to right: a saline-treated animal which was not treated with CFA (Complete Freund's Adjuvant), a saline-treated animal which received CFA and a XG-102-(SEQ ID NO: 233) treated animal which also received a CFA injection. After CFA treatment, muscular and epithelial layers appear to be less organized due to edema. The presence of XG-102 (SEQ ID NO:233) positive cells was detected only in animal treated with XG-102 (upper right panel). […] 19A: Magnification ×20; 19B: Magnification ×40; 19C: Magnification ×100.
FIG. 20A represents the hind paw section of a CFA treated animal stained with three different dyes. The four upper panels represent the same portion at high magnification of a distal region. Distribution of the leucocyte marker (mainly granulocytes, macrophages and monocytes) cd11b (first from left) and XG-102 (SEQ ID NO: 233, second from left) as well as the Dapi nuclear stain (3rd from left) are indicated. The upper right panel represents the merge image of cd11b and XG-102 positive stain. […]

Substance: dqsrpvqpflnIttprkprpprrrqrrkkrg (DQSRPVQPFLNLTTPRKPRPPRRRQRRKKRG; not fully specified (some residues); printed as dqsrpvqpflnIttprkprpprrrqrrkkrg) [XG-102]
- co-localization with cd11b positive leucocytes: co-localizes with a certain leucocyte population
- presence in leucocytes of inflamed paw (HRP staining): presence of XG-102 in infiltrating leucocytes
